Source: patent publication US20130177981A1 (WISCONSIN ALUMNI RESEARCH FOUNDATION, published 2013)
Where two headings read alike, the source gives them in different places. Where no end group is shown, it is not given here. [ ]: non-standard residue; d: D form. APC = trans-3-aminopyrrolidine-4-carboxylic acid; ACPC = trans-2-aminocyclopentanecarboxylic acid; β3hR = N=C(N)NCCC[C@H](N)CC(=O)O; β3hT = C[C@@H](O)[C@H](N)CC(=O)O; β3hE = N[C@@H](CCC(=O)O)CC(=O)O; β3hA = C[C@H](N)CC(=O)O

What was measured:
[1] = biological target: gp41 of HIV-1 strain CC 1/85 (HIV-1 strain CC 1/85); test: cell-based or functional assay
[2] = biological target: T1, gp41 of the envelope glycoprotein of the HIV-1 clone HxB2 (HIV-1 clone HxB2, UniProt P04578 33-856); test: cell-based or functional assay
[3] = biological target: gp41 of HIV-1 strain NL4-3 (HIV-1 strain NL4-3); test: cell-based or functional assay
[4] = biological target: gp41 of HIV-1 strain HC4 (HIV-1 strain HC4); test: cell-based or functional assay
[5] = biological target: gp41 of HIV-1 strain DJ258 (HIV-1 strain DJ258); test: cell-based or functional assay
[6] = biological target: T2, NHR α-peptide 1 (HIV, N-terminus acetyl-capped); test: CD at 222 nm, thermal unfolding, 20 µM total peptide in PBS
T2 construct: Forms a six-helix bundle (three NHR and three CHR helices) when mixed with CHR peptides; also called NHR peptide 1

[7] = biological target: T3, gp41-5 (HIV); test: competition FP; displacement of Flu-C38 from gp41-5
T3 construct: also called gp41-5 protein construct; five-helix bundle protein
Procedure: Competition fluorescence polarization assays were conducted in black 96-well plates. […] A second stock plate was prepared containing serial dilutions of peptide inhibitors in DMSO. The peptide stock solutions were transferred to the assay plate (1 μL per well). […] All experimental conditions were carried out in duplicate, and each peptide was assayed in 2-3 independent experiments. Data analysis was carried out in GraphPad Prism. Raw mP data from each experiment were fit to a sigmoidal dose response and normalized to the resulting parameters for the top and bottom of the curve. All experiments included at least one compound showing complete inhibition at the highest concentrations tested. Normalized data from multiple independent runs of the each oligomer were combined and globally fit to an exact analytical expressions for FP competitive binding with Kᵢ as the only floating parameter.

[8] = biological target: T2, NHR α-peptide 1; test: CD at 222 nm, thermal unfolding, 20 µM total peptide in PBS; remark: listed apart in the source
[9] = biological target: T3, gp41-5; test: competition FP; displacement of Flu-C38 from gp41-5; remark: listed apart in the source
[10] = biological target: T1, gp41 of the envelope glycoprotein of …; test: cell-based or functional assay; remark: listed apart in the source
[11] = biological target: the molecule itself; test: crystal structure of 10 alone (self-assembly)
[12] = biological target: T3, gp41-5; test: competition FP on gp41-5
[13] = biological target: T3, gp41-5; test: competition FP; displacement of Flu-C38 from gp41-5; remark: listed apart in the source

For Ac-TTWEAWDRAIAEYAARIEALIRAAQEQQEKNEAALREL (also called T-2635; CHR α-peptide 3) [α-peptide 3], the “Inhibition of HIV-1 infectivity, IC50 (nM), CC 1/85” value (shortened to “Inhibition … CC 1/85”) [1] was 140 nM, the “Cell-cell fusion inhibition IC50” value [2] was 9 nM and the “Inhibition of HIV-1 infectivity, IC50 (nM), NL4-3” value (“Inhibition … NL4-3” below) [3] was 5 nM. For the same binder, the “Inhibition of HIV-1 infectivity, IC50 (nM), HC4” value (“Inhibition … HC4” below) [4] was 27 nM, the “Inhibition of HIV-1 infectivity, IC50 (nM), DJ258” value (from here on “Inhibition … DJ258”) [5] was 58 nM and the “Tm of the 1:1 NHR + CHR mixture” value [6] was 77 ° C. The Ki [7] was < 0.2 nM, the “Tm,app of the 1:1 NHR + CHR mixture” value [8] was 77 ° C and the Ki [9] was 0.2 nM. The “Cell-Cell Fusion IC50” value [10] was 9 nM.

B1: chimeric CHR α/β-peptide 8 (peptide)
peptide: Ac-TTWEAWDRAIAEYA[ACPC]RIE[ACPC]LI[APC]AAQ[β3hE]QQ[β3hE]KNE[ACPC]AL[APC]EL-NH2
modifications: not fully specified
notes: Made from 7 by replacing two β3-hArg residues with APC
For B1, the “Tm,app of the 1:1 NHR + CHR mixture” value [8] was 65 ° C.

B2: α/β-peptide 10 (peptide)
peptide: Ac-[β3hT]TWE[ACPC]WD[APC]AIA[β3hE]YA[ACPC]RIE[ACPC]LI[APC]AAQ[β3hE]QQ[β3hE]KNE[ACPC]AL[APC]EL-NH2
notes: Made from 9 by replacing the three β3-hArg residues with APC; also called foldamer 10
With B2 the “Inhibition … CC 1/85” value [1] was 180 nM, the “Cell-cell fusion inhibition IC50” value [2] was 5 nM and the “Inhibition … NL4-3” value [3] was 28 nM. For the same binder, the “Inhibition … HC4” value [4] was 59 nM, the “Inhibition … DJ258” value [5] was 110 nM and the “Tm of the 1:1 NHR + CHR mixture” value [6] was 55 ° C. The binding result [11] was “binds”, the Ki [7] was 9 nM and the “fold difference in affinity against 5” value [12] was > 45 fold. For the same binder, the “fold enhanced binding relative to 4” value [12] was ~380 fold, the “fold improvement in Ki relative to 9” value [12] was ~10 fold and the “Tm,app of the 1:1 NHR + CHR mixture” value [8] was 55 ° C. For the same binder, the Ki [9] was 9 nM and the “Cell-Cell Fusion IC50” value [10] was 5 nM.

B3: α/β-peptide 11 (peptide)
peptide: Ac-A[β3hE]YA[ACPC]RIE[ACPC]LI[APC]AAQ[β3hE]QQ[β3hE]KNE[ACPC]AL[APC]EL
notes: also called oligomer 11; truncated α/β-peptide 11
With B3 the Ki [7] was > 10000 nM.

With Ac-[β3hT]TWE[ACPC]WD[β3hR]AIA[β3hE]YA[ACPC]RIE[ACPC]LI[β3hR]AAQ[β3hE]QQ[β3hE]KNE[ACPC]AL[β3hR]EL (not fully specified, to be checked against the listing) [α/β-peptide 9] the Ki [7] was 83 nM, the “fold higher affinity than 4” value [12] was 50 fold and the “fold improvement in Ki relative to 4” value [12] was > 45 fold. The Ki [9] was 83 nM.

B4: (α+α/β)-peptide 5 (peptide)
peptide: Ac-TTWEAWDRAIAEYAARIEALI[β3hR]AAQ[β3hE]QQ[β3hE]KNE[β3hA]AL[β3hR]EL
notes: Chimera of α-peptide 3 and α/β-peptide 4; also called oligomer 5
In the case of B4, the “Inhibition … CC 1/85” value [1] is reported as 270 nM, the “Cell-cell fusion inhibition IC50” value [2] is reported as 7 nM and the “Inhibition … NL4-3” value [3] is reported as 10 nM. For the same binder, the “Inhibition … HC4” value [4] was 55 nM, the “Inhibition … DJ258” value [5] was 280 nM and the “Tm of the 1:1 NHR + CHR mixture” value [6] was 69 ° C. For the same binder, the Ki [7] was < 0.2 nM, the “Tm,app of the 1:1 NHR + CHR mixture” value [8] was 67 ° C and the Ki [9] was 0.2 nM. The “Cell-Cell Fusion IC50” value [10] was 7 nM.

With Ac-[β3hR]TWE[β3hE]WD[β3hR]AIA[β3hE]YA[ACPC]RIE[ACPC]LI[APC]AAQ[ACPC]QQ[APC]KNE[ACPC]AL[APC]EL-NH2 (not fully specified, also called compound 16; peptide 16) [α/β foldamer 16] the Ki [13] was 3 nM.

Ac-[β3hR]TWE[β3hE]WD[β3hR]AIA[β3hE]YA[β3hR]RIE[β3hE]LI[β3hR]AAQ[β3hE]QQ[β3hR]KNE[β3hE]AL[β3hR]EL-NH2 (also called compound 17; peptide 17) [α/β foldamer 17] showed a Ki [13] of 11 nM.

Ac-TTWEAWDRAIAEYA[ACPC]RIE[ACPC]LI[β3hR]AAQ[β3hE]QQ[β3hE]KNE[ACPC]AL[β3hR]EL (also: other residues as in 6, also called oligomer 7) [α/β-peptide 7] was tested, and the Ki [7] was 0.4 nM, the “fold higher affinity relative to 6” value [12] was > 30 fold and the “fold improvement in binding relative to 6” value [12] was 40 fold. For the same binder, the Ki [9] was 0.4 nM.

B5: α/β-peptide 6 (peptide)
peptide: Ac-TTWEAWDRAIAEYA[β3hA]RIE[β3hA]LI[β3hR]AAQ[β3hE]QQ[β3hE]KNE[β3hA]AL[β3hR]EL
notes: also called (α+α/β)-peptide 6; oligomer 6
B5 showed a Ki [7] of 15 nM and a Ki [9] of 15 nM.

For Ac-[β3hT]TWE[β3hA]WD[β3hR]AIA[β3hE]YA[β3hA]RIE[β3hA]LI[β3hR]AAQ[β3hE]QQ[β3hE]KNE[β3hA]AL[β3hR]EL (also called oligomer 4) [α/β-peptide 4], the “Inhibition … CC 1/85” value [1] was 1300 nM, the “Cell-cell fusion inhibition IC50” value [2] was 390 nM and the “Inhibition … NL4-3” value [3] was 700 nM. The “Inhibition … HC4” value [4] was 590 nM, the “Inhibition … DJ258” value [5] was 960 nM and the Ki [7] was 3800 nM. The “fold weaker binding than α-peptide 3” value [12] was > 10000 fold, the Ki [9] was 3800 nM and the “Cell-Cell Fusion IC50” value [10] was 390 nM.
